Read-outs that look alike come from different tables or passages of the source.
T1: H-NS wild type (UniProt P0ACF8 1-137)
T1 sequence: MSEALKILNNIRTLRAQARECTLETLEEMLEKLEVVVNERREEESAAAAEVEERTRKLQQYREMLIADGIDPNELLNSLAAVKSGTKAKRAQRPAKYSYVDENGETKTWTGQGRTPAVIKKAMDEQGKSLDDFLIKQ

B1: 20 bp ME (dsDNA)
DNA 1: CTGTCTCTTATACACATCTT
DNA 2: AAGATGTGTATAAGAGACAG
B2: 53 bp ME (WT) (dsDNA)
DNA 1: CCCTGCAGGTCGACTGTCTCTTATACACATCTTGAGTGAGTGAGCATGCATGT
DNA 2: ACATGCATGCTCACTCACTCAAGATGTGTATAAGAGACAGTCGACCTGCAGGG

Assays:
Experiment in all cases: EMSA
[1] = biological target: T2, H-NS wild type;Tn5 HA transposase (Escherichia coli?;Tn5, UniProt P0ACF8;Q46731 1-137;1-476, |E54K;M56A;L372P)
H-NS wild type = biological target: T1, H-NS wild type
Tn5 HA transposase [2] = biological target: T3, Tn5 HA transposase (Tn5, UniProt Q46731 1-476, E54K;M56A;L372P)
[3] = biological target: Tn5 transposase delta369 EK/MA (Tn5, UniProt Q46731 1-368, E54K;M56A)
[4] = biological target: T2, H-NS wild type;Tn5 HA transposase; remark: listed apart in the source
[5] = biological target: H-NS wild type;Tn5 transposase delta369 EK/MA (Escherichia coli?;Tn5, UniProt P0ACF8;Q46731 1-137;1-368, |E54K;M56A)
[6] = biological target: T2, H-NS wild type;Tn5 HA transposase; remark: listed apart in the source
Tn5 HA transposase [7] = biological target: T3, Tn5 HA transposase; remark: listed apart in the source
[8] = biological target: H-NS P116S;Tn5 transposase delta369 EK/MA (Escherichia coli?;Tn5, UniProt P0ACF8;Q46731 1-137;1-368, P116S|E54K;M56A)

| Binder | binding result [1] | binding result (H-NS wild type) | binding result (Tn5 HA transposase [2]) | binding result [3] | binding signal [4] [fold increase] | binding result [5] | binding signal [6] [fold increase] | binding result (Tn5 HA transposase [7]) | binding result [8] |
| --- | --- | --- | --- | --- | --- | --- | --- | --- | --- |
| B1 | binds | no binding | binds | – | – | – | – | – | – |
| B2 | – | – | – | binds | 11 | binds | < 2 | binds | no binding |
